Laboratory results from patent US20160311863A1 (Affibody, published 2016).
Each block holds one binder with its values, some of them ahead of it. Starred links: 1 amine or outer side, 2 acyl side, 3 side chain; linkers in the order of their positions; H or OH if unused. Positions of bridges follow the written chain, without caps; N, C: chain ends. No end group written: not given here. mXylylene = c1cc(C[*:1])cc(C[*:2])c1; oXylylene = c1ccc(C[*:2])c(C[*:1])c1

What was measured:
human serum albumin [1] = molecular target: T1, human serum albumin (human, UniProt P02768 25-609); assay: SPR (ProteOn XPR36), HSA immobilized, 1:1 Langmuir fit, triplicate
T1 construct: Immobilized on the sensor chip (2500 RU in screening; 1100-1600 RU in kinetics); also called HSA
Procedure: (§1) Biosensor binding analyses were performed on a ProteOn XPR36 instrument (Bio-Rad) at 25° C. using PBST (150 mM NaCl, 8 mM Na₂HPO₄, 2 mM NaH₂PO₄, 0.005% Tween20, pH 7.4) as running buffer at a flow rate of 50 μl min⁻¹. An injection of 30 μl of 20 mM HCl at a flow rate of 100 μl min⁻¹ was used for chip regeneration. In a screening experiment, the binding of all polypeptide variants to human serum albumin (HSA) was investigated. The proteins were diluted to 50 nM in running buffer and injected over a chip surface with 2500 RU of immobilized HSA. The association was studied for 300 s and the dissociation was followed for 7200 s (2 h). For data analysis, all samples were double referenced; the signal from a blank surface was first subtracted from the signal from the respective protein, and secondly the signal from an injection of PBST (running buffer) over the HSA surface was subtracted.
The HSA binding kinetics of PEP18049_CL and the reference protein PEP07830 were further studied using a sensor chip with HSA immobilized on three different surfaces to between 1100 RU and 1600 RU. The proteins were diluted in running buffer (0.8, 1.6, 3.3, and 6.6 nM for PEP18049_CL and 1.0, 2.0, 4.0 and 8.0 nM for PEP07830) and injected over the three HSA surfaces and thus giving binding curves in triplicate. The association time was 300 s and the dissociation was followed for 36 000 s (10 h).
(§2) The kinetic parameters of the binding of PEP18049_CL and the reference protein PEP07830 to HSA were obtained from fitting the obtained sensorgrams to a 1:1 Langmuir binding model using the ProteOn Manager software version 3.1.0.6 (Bio-Rad). The average association rate constant (kₐ (M⁻¹ s⁻¹) and dissociation rate constant (kd (s⁻¹)) with standard deviation were calculated. From the average kₐ and the kd the dissociation equilibrium constant (KD (M)) was calculated (KD=kd/kₐ).

human serum albumin [2] = molecular target: T1, human serum albumin; assay: SPR (ProteOn XPR36), HSA immobilized, KD=kd/ka
Procedure: as §1, with “subtracted. […]” for “subtracted.”
as §2

human serum albumin [3] = molecular target: T1, human serum albumin; assay: SPR (ProteOn XPR36), polypeptide injected over immobilized HSA
Procedure: as §1

human serum albumin [4] = molecular target: T1, human serum albumin; assay: SPR (ProteOn) screening, 50 nM over immobilized HSA
Procedure: as §1

B1: PEP18049_CL (designed binder)
chain: LAEAKEAANAELDSYGCSDFYKRLIDKAKTVEGVEALKDAILAAKP
modifications: not fully specified; N-terminal leucine capped with acetic anhydride (acetylated); chloroacetylated Lys45 joined to the thiol of Cys17 by a thioether bond (intramolecular crosslink Cys17-Lys45); synthesised on Rink Amide resin
notes: also called crosslinked PEP18049
koff (human serum albumin [1]): 1.5e-05 s⁻¹
kon (human serum albumin [1]): 620000 M⁻¹ s⁻¹
Kd (human serum albumin [2]): 0.024 nM

B2: PEP07830 (designed binder)
chain: LAEAKEAANAELDSYGVSDFYKRLIDKAKTVEGVEALKDAILAALP-NH2
notes: Linear (non-crosslinked) control, made by solid phase peptide synthesis
koff (human serum albumin [1]): 4.1e-06 s⁻¹
kon (human serum albumin [1]): 190000 M⁻¹ s⁻¹
Kd (human serum albumin [2]): 0.021 nM

B4: PEP14788_CL_A (designed binder)
chain: LAEAKEAANAELDSYGCSDFYKRLIDKAKTVEGVEALKDAILAACP-NH2
modifications: linker 17-45 via oXylylene
notes: Chemically synthesised Cys-Cys crosslinked variant; also called PEP14788 crosslinked with linker A (o-xylylene dibromide)
binding result (human serum albumin [4]): binds

B5: PEP14788_CL_B (designed binder)
chain: LAEAKEAANAELDSYGCSDFYKRLIDKAKTVEGVEALKDAILAACP-NH2
modifications: linker 17-45 via mXylylene
notes: Chemically synthesised Cys-Cys crosslinked variant; also called PEP14788 crosslinked with linker B (m-xylylene dibromide)
binding result (human serum albumin [4]): binds

B7: PEP18051_CL (designed binder)
chain: CAEAKEAANAELDSYGVSDFYKRLIDKAKTVEGVEALKDAILAALP
modifications: not fully specified; chloroacetylated Lys29 joined to the thiol of Cys1 by a thioether bond (intramolecular crosslink Cys1-Lys29); synthesised on Rink Amide resin
notes: Control crosslinked variant; also called crosslinked PEP18051
binding result (human serum albumin [4]): binds

Second part, the binder after the results:

binding result (human serum albumin [3]): no binding (tested: 50 nM)
B3: PEP18052_CL (designed binder)
chain: LAEAKEAANAELDSYGCSDFYKRLIDKCKTVEGVEALKDAILAAKP
modifications: not fully specified; two thioether crosslinks between chloroacetylated lysines and cysteines: Lys5-Cys28 and Cys17-Lys45; synthesised on Rink Amide resin
notes: Control, double crosslinked variant; the expected mass was found in two HPLC peaks that behaved alike; also called crosslinked PEP18052

binding result (human serum albumin [3]): no binding (tested: 50 nM)
B6: PEP18050_CL (designed binder)
chain: LAEAKEAANAELDSYGVSDFYKRLIDKCKTVEGVEALKDAILAALP
modifications: not fully specified; chloroacetylated Lys5 joined to the thiol of Cys28 by a thioether bond (intramolecular crosslink Lys5-Cys28); synthesised on Rink Amide resin
notes: Control crosslinked variant; also called crosslinked PEP18050

binding result (human serum albumin [4]): binds
B8: PEP14788_CL_E (designed binder)
chain: LAEAKEAANAELDSYGCSDFYKRLIDKAKTVEGVEALKDAILAACP-NH2
modifications: linker 17-45 via 2,6‑bis(bromomethyl)pyridine
notes: Chemically synthesised Cys-Cys crosslinked variant; also called PEP14788 crosslinked with linker E (2,6-bis(bromomethyl)pyridine)

binding result (human serum albumin [4]): binds
B9: PEP14789_CL_A (designed binder)
chain: GSSLAEAKEAANAELDSYGCSDFYKRLIDKAKTVEGVEALKDAILAACP
modifications: linker 20-48 via oXylylene
notes: Recombinantly produced in E. coli; same as PEP14788 but with an N-terminal GSS (expressed with an MGSS extension); The crosslink positions are printed as Cys17-Cys45, probably counted without the GSS; also called PEP14789 crosslinked with linker A (o-xylylene dibromide)

binding result (human serum albumin [4]): binds
B10: PEP14789_CL_B (designed binder)
chain: GSSLAEAKEAANAELDSYGCSDFYKRLIDKAKTVEGVEALKDAILAACP
modifications: linker 20-48 via mXylylene
notes: Recombinantly produced in E. coli; same as PEP14788 but with an N-terminal GSS (expressed with an MGSS extension); The crosslink positions are printed as Cys17-Cys45, probably counted without the GSS; also called PEP14789 crosslinked with linker B (m-xylylene dibromide)
